This is an account of results in patent US20220315655A1.

One may read the EC50 (read off the curve) as the concentration needed to bring the measured effect to its halfway point.

This experiment deals with recombinant cynomolgus monkey PD-L1 soluble protein (cynomolgus monkey) (UniProt G7PSE7). The experiment can be described thus: sandwich ELISA, antibody captured on anti-human Fc, biotinylated rec. cynomolgus PD-L1 titrated (x axis), fluorescence.
recombinant cynomolgus monkey PD-L1 soluble protein (cynomolgus monkey), sequence (G7PSE7 entry or part of it): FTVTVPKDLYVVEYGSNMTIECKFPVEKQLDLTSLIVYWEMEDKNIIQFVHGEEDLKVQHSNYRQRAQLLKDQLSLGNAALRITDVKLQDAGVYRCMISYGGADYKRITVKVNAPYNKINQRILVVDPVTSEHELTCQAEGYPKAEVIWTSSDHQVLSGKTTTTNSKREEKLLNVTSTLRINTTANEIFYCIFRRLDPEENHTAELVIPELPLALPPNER

Avelumab (antibody), sequence (VH): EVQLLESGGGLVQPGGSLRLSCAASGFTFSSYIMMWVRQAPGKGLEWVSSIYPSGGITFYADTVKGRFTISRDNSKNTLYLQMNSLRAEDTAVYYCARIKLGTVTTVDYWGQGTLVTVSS
Avelumab (antibody), sequence (VL): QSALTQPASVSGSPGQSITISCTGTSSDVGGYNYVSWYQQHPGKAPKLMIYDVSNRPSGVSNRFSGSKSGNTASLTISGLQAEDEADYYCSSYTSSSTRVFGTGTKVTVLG

With Avelumab (antibody), the EC50 (read off the curve) came out at 0.05 nM.
